Test results published in US6908741 (TRANSTECH PHARMA, dated 2005).

Experiments:
[1] = biological target: T1, soluble RAGE (sRAGE), the soluble, extracellular portion of the human Receptor for Advanced Glycated … (human, UniProt Q15109 23-339); assay: ELISA saturation curve with Scatchard analysis (FIG. 9), 100 ng/well S-100b coated, sRAGE about 0.3-10 nM; high affinity component
[2] = biological target: T1, soluble RAGE (sRAGE), the soluble, …; assay: ELISA saturation curves with Scatchard analysis (FIGS. 10 and 11), 500 and 100 ng/well S-100b coated, sRAGE about 23-470 nM or 5-76 nM; low affinity site, told for both experiments
[3] = biological target: T1, soluble RAGE (sRAGE), the soluble, …; assay: ELISA saturation curve with Scatchard analysis (FIG. 8), 50 ng/well S-100b coated, sRAGE about 0.3-10 nM; high affinity component

T1 sequence (Q15109 23-339 limits assumed): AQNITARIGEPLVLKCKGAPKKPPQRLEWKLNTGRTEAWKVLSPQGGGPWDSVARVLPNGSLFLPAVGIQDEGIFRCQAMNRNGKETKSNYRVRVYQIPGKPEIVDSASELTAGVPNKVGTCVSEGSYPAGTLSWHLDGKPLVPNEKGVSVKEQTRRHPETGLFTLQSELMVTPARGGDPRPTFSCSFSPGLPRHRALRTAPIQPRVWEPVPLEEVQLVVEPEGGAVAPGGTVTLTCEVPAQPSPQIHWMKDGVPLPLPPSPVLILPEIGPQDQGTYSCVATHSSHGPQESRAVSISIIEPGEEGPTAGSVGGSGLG

B1: S-100b (ligand)
chain: MSELEKAMVALIDVFHQYSGREGDKHKLKKSELKELINNELSHFLEEIKEQEVVDKVMETLDNDGDGECDFQEFMAFVAMVTTACHEFFEHE
[1]
  Kd: ~2 nM
[2]
  Kd: ~60 nM
[3]
  Kd: ~6 nM
